# Source: paper doi:10.1101/2020.12.24.423824 (bioRxiv, 2020)
# B1: RILP-GFP10 (natural protein, UniProt Q96NA2 1-401, looked up)
# chain: MEPRRAAPGVPGWGSREAAGSASAAELVYHLAGALGTELQDLARRFGPEAAAGLVPLVVRALELLEQAAVGPAPDSLQVSAQPAEQELRRLREENERLRRELRAGPQEERALLRQLKEVTDRQRDELRAHNRDLRQRGQETEALQEQLQRLLLVNAELRHKLAAMQTQLRAAQDRERERQQPGEAATPQAKERARGQAGRPGHQHGQEPEWATAGAGAPGNPEDPAEAAQQLGRPSEAGQCRFSREEFEQILQERNELKAKVFLLKEELAYFQRELLTDHRVPGLLLEAMKVAVRKQRKKIKAKMLGTPEEAESSEDEAGPWILLSDDKGDHPPPPESKIQSFFGLWYRGKAESSEDETSSPAPSKLGGEEEAQPQSPAPDPPCSALHEHLCLGASAAPEA
# B2: GFP10-CLN3 (natural protein, UniProt Q13286 1-438, looked up)
# chain: MGGCAGSRRRFSDSEGEETVPEPRLPLLDHQGAHWKNAVGFWLLGLCNNFSYVVMLSAAHDILSHKRTSGNQSHVDPGPTPIPHNSSSRFDCNSVSTAAVLLADILPTLVIKLLAPLGLHLLPYSPRVLVSGICAAGSFVLVAFSHSVGTSLCGVVFASISSGLGEVTFLSLTAFYPRAVISWWSSGTGGAGLLGALSYLGLTQAGLSPQQTLLSMLGIPALLLASYFLLLTSPEAQDPGGEEEAESAARQPLIRTEAPESKPGSSSSLSLRERWTVFKGLLWYIVPLVVVYFAEYFINQGLFELLFFWNTSLSHAQQYRWYQMLYQAGVFASRSSLRCCRIRFTWALALLQCLNLVFLLADVWFGFLPSIYLVFLIILYEGLLGGAAYVNTFHNIALETSDEHREFAMAATCISDTLGISLSGLLALPLHDFLCQLS
# Target: RlucII-Rab7A (UniProt P51149 1-207)
# Assay: FRET or BRET
# Chain of RlucII-Rab7A (P51149 whole entry): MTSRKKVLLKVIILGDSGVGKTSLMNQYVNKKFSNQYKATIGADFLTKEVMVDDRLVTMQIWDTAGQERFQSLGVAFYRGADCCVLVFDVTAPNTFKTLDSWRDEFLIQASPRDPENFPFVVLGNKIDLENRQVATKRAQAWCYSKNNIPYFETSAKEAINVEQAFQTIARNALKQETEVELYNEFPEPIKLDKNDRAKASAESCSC
binder,measurement,value
B1,fold increase of BRET50 in CLN5KO cells against wild-type HeLa cells,3 fold
B2,fold increase of BRET50 in CLN5KO cells against wild-type HeLa cells,2.85 fold
